Experiment: soluble on expression in E. coli; label from the status in PepcDB or PDB records

Row | Sequence | soluble on expression in E. coli
1 | MEDHKPRPCQPRPWLKEQKCPTGFWCHEGQSEHSFYCCPSSRKFANRCHLPPAVGYGKQRMRRFYFDWKTDACHELQYSGIGGNENIFMDYEQCERVCRGAGEPPILLPSNMKVLPKETTKDFKKMEKPEMEKKMVYPKEVAAPVSLQPPSLRTTKPADVHESFYTVSPQTSSVPHPTTLSTTHSKQKPTTTEAEIPEVFDPNPCSLSPDKGFPGSVTVNMWYYDPTSTTCSPFMYLGKGGNSNRFETSEECLETCGIGKPTRKSCELPPAIGNGPFNIPRYYFDRVTKKCERFFYSGRDGNDNRFYKKNKCERLCLRKKPKKKENIYEFTTTPSTPSVIYESTPLRIIQNLVPNYVTPTPTQSRITVEPWIERFTEKSSIYEYSTTPHPTLIYEPHGETLPTLNPPTTTTPSIVDHVFSSLMNTQQQKLVEFVHVPTDQKTTGETPRKFSSHETIPFGQVEQQPIPMNPFGSAKPTVNKFGMKVEPYQTTDYMLPPGYPSSSIYLPQPAYPEVKPNSSVILSSTQSQNNTSPQTIPASASVTNSATSTVVDTSSQFQIPYVSSPASATSNIFVGPIPPPSNSGSSSQAPDSSQSATNSSNSGSGESKIPNVGPIAPPSQLSQVGVFVTGSTSTSPVVSINFIKTENSVQQPTHYIVPSQSSPPPDPYVISNPIPTLSPTAGTPSFNIYPYPSLPPPTTTISPLPTLLPPNISYVTSPPDNNDSPCSRSIYGDATIMCENRQEICPMGTFCQIGQGQSICCPIMDEPPCEQAIEEGVGNVLLRRWYFDPATRLCQPFYYKGFKGNQNNFQSFDSCSRACGATNVCSGGSPQMSVHTHLLSCNFESDCPYSHDCIQSTPHNLCCPKTSHLVPESIPAPPFEPVQMPIPAPPAQVSQPQEQSSNMVIDFVPATHASNNLCGQPIDVGFGVLSEHRWAYSAGQCTSFLYSGHGGNMNNFLTRNDCMKTCQSPMPPPSSQCSQPAASGQGDQYLSRYFFSPEYRQCLHFIYSGEGGNQNNFDSLTDCLETCVANGIKFSSLANSPMSAVPPPPPTLMPSPPVTSSPFTFVPRNMCPQGDPLITVDGTPIQCDPSKAAKCPGDHVCTPRGNEAYCCPSPMNFCLQSRPPISVCSGPDFEPVREIRFTYDPLADRCVRFSFQNCRGAAFSPTGSLNNFVSNSQCNRLCCNQGYNLVYKRRLLMAMNDDPIVEDD | not soluble
2 | MANSMIFKAEGNQLIAERVFDAPRELVFKMFTEAEHLKNWWGPRGWDLTVCNIDFRPGGSWHFCMKCVDENQGDFYGYESWGKALYREIVDGEKIVYVDYFSDSEGNLSEEMPAAEITLTFIDLGGKTKIVNQVEYPSAEELQKGLDMGMEQGFTETWDRLVEYLQDIQLEHHHHHH | not soluble
3 | MGSDKIHHHHHHMNWLNLRAIVPSDKQNMPNKKNKAAFARTVTKNGAPDVSDIKNSYDDLMYESGAFSQTAINNLEARARLMGLQPAPAANAKVLELGCSMGGNIITQALYYPDAEFTGIDLSGRQVAQGNAIIEKMGLKNVRLEEKDILTVDESFGKFDYIIVHGIWSWVPDAVKDKIFSICRNNLTEHGIAYISYNVYPGWKRQEQLREIMQFSGRDVLEEPLEARTRKGLDALKALAEILENDKGLGGGGKLPAIQKILNHNFYYIAHEYMEAFNDPIYVNGFIEWANRHRLAYIGDTDLHVSFVSWMAEHTRERILALAGGDYIAKEFYSDILSDRQFRRSLLCREEVGDTVRRDESVAVEVIESLNFRPARGETINFDENDTLLSGIRDVMKTGEPFKTEDVAENLARRFPGLTFDRMKINSQLLLQTILGRFSVSSDNAGKPFFEDHKTYVPARFTDYVAAFVEHGAEAFVRPANRYNESTPSFGYGHLYIMRQLSRPTSKQAVIDAVAENLNIVSTTPDGLTFHPPAEVYVEEILADLADRHFLVSAD | not soluble
4 | MNERKKSIDELLSDLGVLEEAPVEVELKESGTPEAQGDPRAFLEEFLGGLLLLLDPGHRLEVRVEGETLKAEVKGGDLGRFIGKEGRTLRAVEHLARVVLARRFGTGYRLVLDAAGYRSRAEARIRRLAEEAALTVAMTGEPLHLPPMPPGERRIVHMLLKNHPRVTTESQGEGEERHVVVYPRREAQG | soluble
5 | MSLKNISLAMLARQIGVGVATVDRVLNERGGVSPQTTRKVLQAAREAGLKRILPEEHRFPWQIEVFLSSNDSFFFPQLAQDFAAVADSLGYRRLTLHRTFVPESQPTTLARRIARSCQQRQGIIVFGNDHPAVHDALRRCREAGVPAITLATDLPGADRLCHVGINQLQAGRTAGLMLGRMTPRPGEVLMVSGRQDYSAHRLRIQGFREVLSQRFPHLQLSDVLAGEERREQITRLVEQALCRSRNIVGIYNTGLGNTQIAEALARHRREGDVCWITHERYNTTRQQLAKGSLALTLDQNTRQHAQLAIDLMLRHLESGYQPQTYADGKVDFILYSAENVDEGHHHHHH | soluble
6 | MGSDKIHHHHHHMNTSISASWGRYINAIPPRSGEAALAPLSSFVDGQCIYSFGERADQVYQVEFGAVRVYRLAANGRRQILAFHFGGNWFGLQSRDRHSSNAEAIGVTGVRCISLQEEPLFRPALFSAALDNVSAAQEHQLVIGRQSAIERVAAFLLEMSERSGYSRRFELSMSRVDVADYLALTVETVSRSLTKLKHRGFIELHGARGIELVGYRALQNLCL | not soluble
7 | MGSDKIHHHHHHMIPSSMKAMVLKGHGGIDQLMYQDVPVPQPREGEVLVQVTATAKNNTDRKAREGLYPTKKGEMTSFQMGGKPTLTFPRIQGADIVGRIVAVGAGVSEQRIGERGLLDFNIYADNRTDINLTPDYYGHGADGGYAEYVALPSDQFHHIPNPDLADAELASMGMCSYQTAYHMLTSANIQAGERVLVTGASGGVGTALIQLCRIIGAIPYALSQKDKADSLLKLGAEAVLDRTDMDSFVDRVKAETGGKPLDAVMDLVGGDMTDRFIDAMIFDMNARSTYPRLSIAGASGGNISEILWTRIYLYQVQIFGVSHGTREEAEQLMRWIRSGDLKPVLHGAFRLSELHRAEEYFVNRGSNYLGKIVIVPDAQWQEHGQPYEVEAD | not soluble
8 | MSSNECFKCGRSGHWARECPTGGGRGRGMRSRGRGFQFVSSSLPDICYRCGESGHLAKDCDLQEDACYNCGRGGHIAKDCKEPKREREQCCYNCGKPGHLARDCDHADEQKCYSCGEFGHIQKDCTKVKCYRCGETGHVAINCSKTSEVNCYRCGESGHLARECTIEATA | not soluble
9 | MGSDKIHHHHHHVDALEVHRFLKGKIRTALPVEKVDRETLSLLYTPGVADVARACAEDPEKTYVYTSRWNTVAVVSDGSAVLGLGNIGPYGALPVMEGKAFLFKAFADIDAFPICLSESEEEKIISIVKSLEPSFGGINLEDIGAPKCFRILQRLSEEMNIPVFHDDQQGTAVVVSAAFLNALKLTEKKIEEVKVVVNGIGAAGYNIVKFLLDLGVKNVVAVDRKGILNENDPETCLNEYHLEIARITNPERLSGDLETALEGADFFIGVSRGNILKPEWIKKMSRKPVIFALANPVPEIDPELAREAGAFIVATGRSDHPNQVNNLLAFPGIMKGAVEKRSKITKNMLLSAVEAIARSCEPEPERIIPEAFDMKVHLNVYTAVKGSA | soluble
10 | MAHHHHHHMNRKRPRSPAGVQYWLMKSEPNKFSIDDLKKCTRSPWDGVRNYAARNNMKLMKVGDCVLFYHSNAKPSGVVGLASVVKTAYPDHTALDPKSEYYDARASKKNPWEMVDVQFEEKFASIVSLEELKKEKKLQAMQLFSQSRLSVQPVEKSEYDHVVSLGRKK | soluble
11 | MSLKITLFGGAGFLGSHVCDKLSEAGHDVTVVDLRPSPYLRPDQTMITGNILDEELVARAVEGADMVFNYAGIADIGEANRRPVDTARINVLGNVIALEACRKAGVKRYVFASSLYVYGKSGGFYRCSKQACELYIENYQAMHGLDYTILRYGSLYGSRADIRNAINRFVAEALEKGAITYYGSPTALREYIHVEDAALCTVEVLKPEYANENIVLSGNQPMRVGDLFKMIGEMLGKDIEVVYQHDPNSGHYQITPYAFMPKVGKKMTPILTTDLGQGILRVMEDVHREMHPDMHDVGGYLVSKDEGHHHHHH | soluble
12 | MAHHHHHHMRYFRVLHNFDAQDGVELTVKKGETVFTAESEVREGWIKVEVLHDPRRRGFVPFNYLRETTESLAREQEEGSRGIGRESGGMSTASMTLQPSAVPRETSVTFTSGALDYGDRLQNMYGVGASAPSPVSQRSRSAEQGMKRVNENSMATATKGAVMEPLLPSQKVPSSPPSGADPVPERSLLNNPSAIVEAFMKNELHFKQLIRQRQDALAQMRTTVEEAMSELAACKEKNFTLARKLRELDQSVEKERGRWKERIMEEKAYISRSMSSE | soluble
13 | MSLSEELQQKLRDQLWEVANRLRGNMSASDFMYFTLGFIFYKYLSEKIEKYANNALADDDITFKELWETDDADAIELQEEAKNQCLENIGYFIEPQFLFSSVIEAIKRKENILPMLERSLKRIEDSTLGQDSEDDFGGLFSDIDLASPKLGKTADDKNTLVSNVLLALDDINFGLEASQEIDILGDAYEYMISQFAAGAGKKAGEFYTPQEVSRILAEIVAIGHQRLRNVYDPTCGSGSLLLRAASIGNAVDIYGQEKNPTTYNLARMNMLLHGIRFSNFKIENGDTLEWDAFGDTQFDAVVANPPFSAEWSAADKFNTDDRFSKAGRLAPRKTADYAFILHMIYHLNEGGTMACVAPHGVLFRGNAEGVIRRFLIEKKNYVDAIIGLPANIFYGTSIPTCILVFKKCRKEDDNILFIDASKEFEKVKTQNKLREQHIQKIVETYRDRKEIEKYSHLASLQEIAENDYNLNIPRYVDTFEEEEPIDIKAVMAEIKELEAKRAELDKEIEVYLKELGIVEEGHHHHHH | soluble
14 | MGHHHHHHSHMRPELLEYYIKVILDYNTAHNKVALSECYTVASVAEMPQNYRPHPQRFTYCSQVLGLHCYKKGIHYWEVELQKNNFCGVGICYGSMNRQGPESRLGRNSASWCVEWFNTKISAWHNNVEKTLPSTKATRVGVLLNCDHGFVIFFAVADKVHLMYKFRVDFTEALYPAFWVFSAGATLSICSPK | not soluble
15 | GMEGSLSRGVEIMKLRELVARSRSIRRFDEHVAVNDATLRDLVELVCYTPSAANRQLLRFLPVTGADMSDKVFPCLKWAGYLEDWPGPEPGERPAAALVMLCRNEDLPGAACDSGIAAQTIMLGAAEKELGGCIVAAIDRERLMASLGIPDAWTVLLVIALGKPAETVVIDQIKPGDDIRYWRDKHGIHHVPKRQVDELLVTAEQLRERG | soluble
16 | MLEALRKCPTMFAVTSDGSSTMAKMDNSARQLALFVATTNGEFYQSNFGEEALETIKYQLGKDAGWGLFFDVLRNAFNGNCVSILARSEDTAHILCGKEDCSEKSALCFPIQKTEEDTSATILKCLVDANAVYANPKEEKNKVQKIMEELEKAKLQVRMLEEEVRVLCENNIWRRKQDTKNTLKIGKLRDNISRLSNQINPKAKEVSETSVGETSGPHAEDSYIPGRKLLRLVFEKKECKEYDVELLRLIKSRWPKTEGSKACNASNCLIDPYTESELPERLSRMSKKHKMVWGTLNGLDDWDYNVFELQAAIDGDDINCKNDQSGCGALFITMYALVVKYGFLRKFEINERIFLNWLSAVEGGYHANPYHNSMHAADVLHITHYLLSKGGLAELCKLNDRQVLAALFAAAIHDYNHPGINNNFSILTQTYNATLYNDRSVLENMHVASVFELMRNPALNILACFSEEHWRDFRNTVIDMVLATDMSLHEKYMTQFKRRLSEKRPFTEDCDQNLALAMALKLADISNCCRPLPLYLKWSERVSDEFYTQGDRERSLGMSCSPFMDRQTPMIAEGQTSFINYIFIPFLEVMAEFLPSMGFTLGLAAVCKSHRLVGNTGQGT | not soluble
17 | MATLATKKATLVAALKDLQRVTVAFSGGIDSTLVLKMALDVLGRDNVTAVVANSELFTDEEFDKAMSLAEELGANVQGTTLDYLSDDHIKNNTPDSWYYAKKMFYSRLNDIAANNGSAAVLDGMIKNDENDYRPGLKARSEAGARSLLQEADFFKTDVRALAQELGLTNWNKVASCSVSSRFPYGTTLTHDNIAQVMAAEKYLRSLGFPTVRVRFHNDIARIELPEARIGDFLVFNDRVNRQLQSLGFRYVTLDLGGFRSGRMNDTLTKAQLATFA | not soluble
